US20060191037, “Plant transcription factor that is involved in sugar signalling” (published 2006)

Tests used:
Conditions in all cases: tags: N-terminal His-tag (pET-15b, E. coli BL21(DE3))
[1] = biological target: T1, SUSIBA2 (WRKY transcription factor; purified fraction with 70 and 68 kDa forms) (Hordeum vulgare, UniProt Q6VWJ6 Q6VWJ6:1-573); assay: EMSA; two complexes, attributed to 70 and 68 kDa forms
[2] = biological target: T1, SUSIBA2 (WRKY transcription factor; …); assay: EMSA; binding negligible
From the text: (§1) The 822-bp long SphI/HaeII fragment, encompassing SP8a and flanking sequences, as well as the 437-bp long BspHI/HaeII fragment, containing SP8a and downstream flanking sequence, formed prominent DNA-protein complexes with the purified SUSIBA2 fraction. Much to our surprise, however, the 510-bp long SphI/BsaI fragment, containing SP8a and upstream flanking sequence, bound only very poorly to SUSIBA2. We concluded that, in fact, the target for SUSIBA2 in the iso1 promoter is not SP8a but one or more sites downstream of the SP8a element. […] To follow up on this observation, we carried out EMSAs with oligonucleotides consisting of the iso1 SURE sequence.
(§2) EMSAs were carried out essentially as described by Sun et al. (1999). The competitor probes were prepared by annealing different non-labeled oligonucleotides in 14 mM Tris-HCl (pH 8.0), 7 mM MgCl₂.

[3] = biological target: T1, SUSIBA2 (WRKY transcription factor; …); assay: EMSA; strong binding
From the text: as §1, §2

T1 sequence (Q6VWJ6 whole entry, one chain of several): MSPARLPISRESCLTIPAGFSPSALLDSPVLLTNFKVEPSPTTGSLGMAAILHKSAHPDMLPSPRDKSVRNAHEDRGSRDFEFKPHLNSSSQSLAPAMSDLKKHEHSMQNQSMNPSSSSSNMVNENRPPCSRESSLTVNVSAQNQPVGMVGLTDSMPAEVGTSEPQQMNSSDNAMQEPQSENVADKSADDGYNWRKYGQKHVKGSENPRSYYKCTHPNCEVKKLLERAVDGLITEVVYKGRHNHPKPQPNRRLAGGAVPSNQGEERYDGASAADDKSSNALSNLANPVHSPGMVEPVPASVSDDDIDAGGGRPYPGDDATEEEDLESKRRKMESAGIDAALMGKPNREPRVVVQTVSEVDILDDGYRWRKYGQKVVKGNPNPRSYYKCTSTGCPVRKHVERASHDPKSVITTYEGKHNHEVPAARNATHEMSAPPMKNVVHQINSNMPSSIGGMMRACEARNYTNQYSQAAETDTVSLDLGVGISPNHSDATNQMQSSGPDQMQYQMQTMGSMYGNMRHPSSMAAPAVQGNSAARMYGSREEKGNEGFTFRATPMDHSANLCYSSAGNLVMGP

B1: iso1 W box oligonucleotide (dsDNA)
DNA 1: TCGCTAACCAGTGACTTCCACGTTTCATCATTTATT
DNA 2: AATAAATGATGAAACGTGGAAGTCACTGGTTAGCGA
- binding result [1]: binds

B2: iso1 SP8a oligonucleotide (dsDNA)
DNA 1: CCCTCGTGGAAGCAAAACTGTGTTTCTCGC
DNA 2: GCGAGAAACACAGTTTTGCTTCCACGAGGG
- binding result [2]: no binding

B3: iso1 SURE (SURE-b) oligonucleotide (dsDNA)
DNA 1: GGAAAACCGAAATACCAAAAAATAATAATAAAATAATAAT
DNA 2: ATTATTATTTTATTATTATTTTTTGGTATTTCGGTTTTCC
- binding result [3]: binds
